Source: PMC9303947

Molecular target: Myo1^IQ12-FRET protein (CyPet and YPet separated by both Myo1 IQ motifs) (S. pombe)
Test: FRET or BRET; Cam1 or ^ACECam1 titrated into 0.5 µM Myo1^IQ12-FRET protein in solution, absence of calcium; % change in donor CyPet fluorescence (excitation 435 nm); 140 mM KCl, 2 mM MgCl2, 20 mM MOPS pH 7.0, 2 mM EGTA; two binding events fitted

| affinity of the first binding event [µM] | affinity of the second binding event [µM] | Substance |
| --- | --- | --- |
| < 0.1 | 1.47 | Cam1 (unacetylated Schizosaccharomyces pombe calmodulin) (from UniProt P05933 1-150) (natural protein) |
| < 0.1 | 0.68 | ^ACECam1 (amino-terminally acetylated Schizosaccharomyces pombe calmodulin) (from UniProt P05933 1-150) (natural protein) |
